According to paper PMC7079103:

Assays:
Test in all cases: HRP-coupled steady-state kinetics
Assay type in all cases: biochemical, Phanerodontia chrysosporium
Settings in all cases: apparent, 50 mM potassium phosphate pH 7.5, O2 as co-substrate
[1] = substrate: CC1CCC(O)O1
[2] = substrate: OCCOCCO
[3] = substrate: CCCCCCO
[4] = substrate: CC(O)CCCO
[5] = substrate: OCCCCCCO
[6] = substrate: CCCCCC=O
[7] = substrate: OCCCCCO

B1: alcohol oxidase from Phanerochaete chrysosporium (PcAOX; F101S-PcAOX = AOX*) (Phanerodontia chrysosporium; F101S) (protein)
chain: MGHPEEVDVIVCGGGPAGCVVAGRLAYADPTLKVMLIEGGANNRDDPWVYRPGIYVRNMQRNGINDKATFYTDTMASSYLRGRRSIVPCANILGGGSSINSQMYTRASASDWDDFKTEGWTCKDLLPLMKRLENYQKPCNNDTHGYDGPIAISNGGQIMPVAQDFLRAAHAIGVPYSDDIQDLTTAHGAEIWAKYINRHTGRRSDAATAYVHSVMDVQDNLFLRCNARVSRVLFDDNNKAVGVAYVPSRNRTHGGKLHETIVKARKMVVLSSGTLGTPQILERSGVGNGELLRQLGIKIVSDLPGVGEQYQDHYTTLSIYRVSNESITTDDFLRGVKDVQRELFTEWEVSPEKARLSSNAIDAGFKIRPTEEELKEMGPEFNELWNRYFKDKPDKPVMFGSIVAGAYADHTLLPPGKYITMFQYLEYPASRGKIHIKSQNPYVEPFFDSGFMNNKADFAPIRWSYKKTREVARRMDAFRGELTSHHPRFHPASPAACKDIDIETAKQIYPDGLTVGIHMGSWHQPSEPYKHDKVIEDIPYTEEDDKAIDDWVADHVETTWHSLGTCAMKPREQGGVVDKRLNVYGTQNLKCVDLSICPDNLGTNTYSSALLVGEKGADLIAEELGLKIKTPHAPVPHAPVPTGRPATQQVR
In the case of B1, the Km [1] is reported as 95.5 mM, the kcat [1] is reported as 1.13 s⁻¹ and the kcat/Km [1] is reported as 11.8 M ^-1 s^-1. The Km [2] was 12.3 mM, the kcat [2] was 0.73 s⁻¹ and the kcat/Km [2] was 59.3 M ^-1 s^-1. The Km [3] was 3.0 mM, the kcat [3] was 0.56 s⁻¹ and the kcat/Km [3] was 187 M ^-1 s^-1. It also gave a Km [4] of 52.6 mM, a kcat [4] of 1.28 s⁻¹ and a kcat/Km [4] of 24.3 M ^-1 s^-1. The Km [5] was 12.9 mM, the kcat [5] was 4.07 s⁻¹ and the kcat/Km [5] was 316 M ^-1 s^-1. For the same protein, the Km [6] was 0.20 mM, the kcat [6] was 0.15 s⁻¹ and the kcat/Km [6] was 750 M ^-1 s^-1. The Km [7] was 69.6 mM, the kcat [7] was 3.48 s⁻¹ and the kcat/Km [7] was 50.0 M ^-1 s^-1.
